Patent US20110268740A1

B1: scFv-F052-msFcγ2c (Fc fusion)
chain: DADPAQAAERVMTQSPDALAVSLGERATINCKSSQSLLYSSNNKNYLAWYQKKPGQPPKLLIYWASTRESGVPDRFSGSGSGTEFTLTINSVQAEDVAVYYCQQYFMTPITFGQGTKLEIKGGSSRSSSSGGGGSGGGGQVQLQESGGALVQPGRSLRLSCRTSGLNFGDYPINWVRQAPGKGLEWVGFIKSKSYGVTTEFAASVEGRFTISRDDSRGIAYLQMNSLKTEDTAVYYCTSSSGFLYYFDYWGQGTLVTVSSASTKGPSVTSGQAGRKLEPRVPITQNPCPPLKECPPCAAPDLLGGPSVFIFPPKIKDVLMISLSPMVTCVVVDVSEDDPDVQISWFVNNVEVHTAQTQTHREDYNSTLRVVSALPIQHQDWMSGKEFKCKVNNRALPSPIEKTISKPRGPVRAPQVYVLPPPAEEMTKKEFSLTCMITGFLPAEIAVDWTSNGRTEQNYKNTATVLDSDGSYFMYSKLRVQKSTWERGSLFACSVVHEGLHNHLTTKTISRSLGK
B2: scFv-D005-msFcγ2c (Fc fusion)
chain: DADPAQAAELVMTQSPDSLAVSLGERATINCKSSQSVLYTSNNKNYLGWYQQKPGQPPNLLIYWASTRESGVPDRFSGSGSGTDFTLTINSVQAEDVAVYYCQQYFMTPITFGQGTRLEIKGGSSRSSSSGGGGSGGGGEVQLVESGGALVQPGRSLRLSCRTSGLNFGDYPINWVRQAPGKGLEWVGFIKSKSYGVTTEFAASVEGRFTISRDDSRGIAYLQMNSLKTEDTAVYYCTSSSGFLYYFDYWGQGTLVTVSSASTKGPSVTSGQAGRKLEPRVPITQNPCPPLKECPPCAAPDLLGGPSVFIFPPKIKDVLMISLSPMVTCVVVDVSEDDPDVQISWFVNNVEVHTAQTQTHREDYNSTLRVVSALPIQHQDWMSGKEFKCKVNNRALPSPIEKTISKPRGPVRAPQVYVLPPPAEEMTKKEFSLTCMITGFLPAEIAVDWTSNGRTEQNYKNTATVLDSDGSYFMYSKLRVQKSTWERGSLFACSVVHEGLHNHLTTKTISRSLGK

Key:
[1] = biological target: M2e-short (Influenza A virus (consensus)); experiment: ELISA, apparent affinity, purified scFv-msFcγ2c on immobilised M2e-short
[2] = biological target: M2e consensus peptide (free, soluble) (Influenza A virus (consensus of H1, H2 and H3 subtypes of human Influenza A viruses)); experiment: Friguet ELISA, free M2e peptide in solution

Binder | EC50 (scFv-D005-msFcγ2c) [µM] | EC50 (scFv-F052-msFcγ2c) [µM] | EC50 [1] [nM] | Kd [2] [µM]
SLLTEVETPIRNEWGC (modifications not checked) [M2e-short] | 27.5 | 46.8 | – | –
B1 | – | – | 0.0628 | 0.005
B2 | – | – | 0.0809 | 0.004
SLLTEVETPIRNEWGCRCNDSSD (modifications not checked) [M2e consensus peptide (free, soluble)] | 18.8 | 22 | – | –
